Measured values: patent US20220364173

Molecular target: T1, Bst 2.0 DNA polymerase (UniProt P52026)
T1 sequence: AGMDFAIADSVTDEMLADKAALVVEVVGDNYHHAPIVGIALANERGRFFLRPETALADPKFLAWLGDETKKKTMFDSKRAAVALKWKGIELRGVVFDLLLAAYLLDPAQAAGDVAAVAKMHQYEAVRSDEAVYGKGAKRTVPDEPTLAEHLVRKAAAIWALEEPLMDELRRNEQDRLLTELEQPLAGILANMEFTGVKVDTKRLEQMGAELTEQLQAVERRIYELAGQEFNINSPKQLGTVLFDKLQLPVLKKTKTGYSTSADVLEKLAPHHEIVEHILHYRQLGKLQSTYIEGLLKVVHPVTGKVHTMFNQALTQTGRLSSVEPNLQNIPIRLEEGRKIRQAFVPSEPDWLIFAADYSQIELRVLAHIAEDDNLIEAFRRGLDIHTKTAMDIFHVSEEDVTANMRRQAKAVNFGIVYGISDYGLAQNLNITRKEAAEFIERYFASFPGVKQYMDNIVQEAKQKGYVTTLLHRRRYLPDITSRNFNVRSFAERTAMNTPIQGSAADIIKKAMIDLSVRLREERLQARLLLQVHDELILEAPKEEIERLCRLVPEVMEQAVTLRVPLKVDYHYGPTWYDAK
Conditions: N6-allyl-N6-methyladenosine at centre of NNANN, I2-cyclized; mutation rate on all DRACH motifs during reverse transcription; MgSO4, PEG 4000, 37 C

With UCGACGUNNANNGGCAUUGCU [NNam6ANN probe] the activity was > 25%.
